Experimental findings from publication PMC3149027, “Structural and functional basis for RNA cleavage by Ire1” are described below.

For data set [1], the target named is Ire1KR32 (wild type) (yeast).
The target of another data set is T1, Ire1KR32 (Saccharomyces cerevisiae? ("yeast"), UniProt P32361 641-1115).
T1 sequence: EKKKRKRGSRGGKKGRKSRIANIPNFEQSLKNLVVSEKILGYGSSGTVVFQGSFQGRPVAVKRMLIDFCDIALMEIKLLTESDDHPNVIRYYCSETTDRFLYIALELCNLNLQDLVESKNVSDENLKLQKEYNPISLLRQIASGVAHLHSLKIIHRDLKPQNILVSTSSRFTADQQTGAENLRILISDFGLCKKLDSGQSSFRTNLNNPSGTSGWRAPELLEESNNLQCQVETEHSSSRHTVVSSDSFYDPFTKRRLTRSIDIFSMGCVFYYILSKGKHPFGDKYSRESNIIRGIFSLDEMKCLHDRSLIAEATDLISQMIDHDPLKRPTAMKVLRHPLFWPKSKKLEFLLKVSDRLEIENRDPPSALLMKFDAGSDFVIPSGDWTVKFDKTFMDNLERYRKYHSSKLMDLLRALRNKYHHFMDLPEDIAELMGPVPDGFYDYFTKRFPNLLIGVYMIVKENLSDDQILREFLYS
Put plainly: competition (inhibition of 32P-HP21 cleavage); apparent Ki; 2 mM Mg2+, 2 mM ADP, 3 uM Ire1KR32; 20 mM HEPES pH 7.4, 70 mM NaCl, 5% glycerol, 2 mM Mg(CH3COO)2, 2 mM ADP, 4 mM DTT, 30 C. The settings on record: protein: recombinant; tags: GST removed with Prescission protease; label: none; single strand.

In the case of Ire1KR32(H1061N) (domain or fragment), the RNase activity (single-turnover cleavage of 32P-HP21) of 1.5 μM wild-type Ire1KR32 titrated with 0.1-15 μM Ire1KR32(H1061N); in trans activation, inhibition at excessive H1061N in data set [1] was determined as 10 fold.
Take CCGCAG (ssDNA, 2'-deoxy throughout) [dCdCdGdCdAdG (2'-deoxy-CCGCAG)]: the Ki in the data set with Ire1KR32 is 200 ± 50 µM.
